These results are taken from the supplement of paper PMC9170038.

The subject of series [1] is MS2 coat protein. Description: apparent KD of MS2 coat protein, switch OFF state (with FMN for OFF switches, without FMN for ON switches); designed switch direction (-1 OFF switch, 1 ON switch): 1; higher = weaker reporter binding. To be noted: FMN input: 0 or 200 uM; Eterna round: R93 (includes R88 designs). The method in brief:
(§1)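 Designed RNA switches were made by on-chip transcription from Illumina sequencing clusters and then titrated with SNAP-549-labelled MS2 coat protein. Twofold steps ran from 0.7 or 1.5 nM to 3 µM, each lasting 0.8–1.5 h early and 10–20 min late, in 100 mM Tris-HCl pH 7.5, 80 mM KCl, 4 mM MgCl2, without or with constant ligand. Apparent KD is the per-design median of normalised cluster binding-curve fits.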

The subject of series [2] is MS2 coat protein. Description: apparent KD of MS2 coat protein, switch ON state; designed switch direction (-1 OFF switch, 1 ON switch): 1; higher = weaker reporter binding. The note with it: FMN input: 0 or 200 uM; Eterna round: R93 (includes R88 designs). Put shortly:
as §1

As for “AGCUAACAUGAGGAUCACCCAUGUCCGCUAAACCAAGGAUAUGGGACGAAUAAAAUCGGACCAGAAGGUGGCCGAC [Qureaed]”, the “apparent KD of MS2 coat protein” value worked out at 222 nM with MS2 coat protein [1] and 218 nM with MS2 coat protein [2].
Take “AAGAAACAUGAGGAUCACCCAUGUAAGAAUAUGGGAGGAUAUACAAGGACAAGAGUCAAGGUAGAAGGCCUAAGAA [Mat - Same State 1 - Meechl mod - D143]”: the “apparent KD of MS2 coat protein” value stood at 118 nM with MS2 coat protein [1] and 33 nM in the series on MS2 coat protein [2].
Take “AAUAAUUAUAUGGAGGAUAUCCGUAAUAAGACAUGAGGAUCACCCAUGUAAUAAGGGUAAAUAAAGGAGAAGGCCAAGGGUGAAA [JR_SS002_Sub003]”: the “apparent KD of MS2 coat protein” value in the series on MS2 coat protein [1] was 184 nM; in the series with MS2 coat protein [2], 98.4 nM.
As to “AAACAACAUGAGGAUCACCCAUGUCAAACAAAUCGAGGAUAUGGGCAGGAUUCUUCCUAACUAGAAGGCGAAAACA [Esmatidi]”, the “apparent KD of MS2 coat protein” value was 29.8 nM in the series on MS2 coat protein [1] and 164 nM in the series on MS2 coat protein [2].
Take “UAUCAUUACACGAAGGAUAUCGAUAAUUGAACAUGAGGAUCACCCAUGUGCCAUCCCUUACAGUUCGAGAAGGUCGAGGGUGAAG [JR_SS002_Sub707]”: the “apparent KD of MS2 coat protein” value in the series with MS2 coat protein [1] is 299 nM; with MS2 coat protein [2], 142 nM.
For “AAAACACAUGAGGAUCACCCAUGUAAAAACAAGGGAGGAUAUGCUUGGAAAACAUGCUAUGCAGAAGGCUCAAGUG [SS1 - 11]”, the “apparent KD of MS2 coat protein” value was 31.1 nM in the series on MS2 coat protein [1] and 42.9 nM in the series on MS2 coat protein [2].
For “AACAAUCUAUCUGAGGAUAUGUGUCGAAAGACAUGAGGAUCACCCAUGUCAAAACAUGGAAAGAUACAGAAGGCAGAUAGAUUGA [SS2: 1158]”, the entries for the “apparent KD of MS2 coat protein” value with MS2 coat protein [1] and in the series with MS2 coat protein [2] were 11.9 nM and 8.33 nM, respectively.
In the case of “UAAAAACAUGAGGAUCACCCAUGUAGAAAUAUGGGAGGAUAUACGAAGACGAAAGUCAAAGUAGAAGGCCUAAAAU [Mat - Same State 1 - Eli mod - D104]”, the “apparent KD of MS2 coat protein” value came out at 58 nM in the series on MS2 coat protein [1] and 21.8 nM in the series with MS2 coat protein [2].
As for “AGAAAUAAAAGAGAGGAUAUCCAAAAGGGAACAUGAGGAUCACCCAUGUAAAUGAAAAUAAAAUGGGAGAAGGCUCAAAAUAAAG [80% More Helter Skelter 2]”, the results for the “apparent KD of MS2 coat protein” value with MS2 coat protein [1] and with MS2 coat protein [2] were 85 nM and 54.6 nM, respectively.
As to “AAACCACAUGAGGAUCACCCAUGUAGAAAUAUGGGAGGAUAUACGAAGACGAAAGUCAAAGUAGAAGGCCUAAAAG [saturn 1]”, the “apparent KD of MS2 coat protein” value with MS2 coat protein [1] was found to be 72.4 nM; with MS2 coat protein [2] it was 24.5 nM.
With “AACAGACAUGAGGAUCACCCAUGUAGAAUUAUGGGAGGAUAUACAAAGACGAGAGUCAGAGUAGAAGGCCUAGGAG [salish99-ss1-162]”, the “apparent KD of MS2 coat protein” value with MS2 coat protein [1] was determined as 44.3 nM; with MS2 coat protein [2], 22.1 nM.
On to “AUAUGAGCUAAUGAGGAUAUCCAUAAUAAGACAUGAGGAUCACCCAUGUAAACAAAACAAUAAUGGGAGAAGGCAUUAGCUCAAU [SS 2 M49]”, for which the “apparent KD of MS2 coat protein” value with MS2 coat protein [1] was 58.8 nM; in the series on MS2 coat protein [2] it was 45.7 nM.
“AAUACACAUAGUCAGGAUAUCAAAACUAAGACAUGAGGAUCACCCAUGUAAUAAGUAAAAGUAAAUGAGAAGGGACAGGGUGACC [JR_SS002_Sub404]”: the “apparent KD of MS2 coat protein” value with MS2 coat protein [1] worked out at 63.9 nM; in the series on MS2 coat protein [2] it was 130 nM.
For the sequence “AAAUAAAUGACUCAGGAUAUAUCAUAGAAUACAUGAGGAUCACCCAUGUUUUAAUAACAUGUUUGGUAGAAGGGAGUCAAUAAAU [LROPPY Same State 2 - v05_deltaG=1.86]”, the results for the “apparent KD of MS2 coat protein” value in the series on MS2 coat protein [1] and in the series on MS2 coat protein [2] were 116 nM and 25.9 nM, respectively.
For “AAAAAACAUGAGGAUCACCCAUGUGAGAACAUGGGAGGAUAUACAAGGACGAGAGUCAAAGUAGAAGGCCUAAAAA [Garnet 65]”, in that order: 29.9 nM and 155 nM.
Turning to “AUAAAAUAAAGGGAGGAUAUCUAUAAUAAAACAUGAGGAUCACCCAUGUUAAAAAGAAGAUCAUGGGAGAAGGCCUAAAAUAAAU [SS2 M 30]”, the “apparent KD of MS2 coat protein” value in the series with MS2 coat protein [1] stood at 46.1 nM; in the series with MS2 coat protein [2], 37.9 nM.
As for “AAAAAAAAUGUGUAGGAUAUCAGUAAAAAUACAUGAGGAUCACCCAUGUUCAAAAAAAAAAAAACUGAGAAGGACGUGGAUGGUCC [Design 3]”, the “apparent KD of MS2 coat protein” value is 11.1 nM with MS2 coat protein [1] and 12.3 nM in the series on MS2 coat protein [2].
Taken in the same sequence, the figures for “AAAAGACAUGAGGAUCACCCAUGUAAAAACGUAGGAGGAUAUGUAUGGAAACCAGACUGUACAGAAGGCCUCUGUC [SS1 - 72]” were 21.1 nM and 22.2 nM.
Taken in the same sequence, the figures for “AACAAUCUAUCUGAGGAUAUGUGUCGAAAGACAUGAGGAUCACCCAUGUGAAAACAUGAAAAAUCACAGAAGGCAGAUAGAUUGA [SS2: 1143]” were 146 nM and 45.8 nM.
